We go through three molecules from publication PMC3646564 (Cell, 2013).

The target of series [1] is D. radiodurans PNPase lacking the S1 domain (D. radiodurans) (UniProt Q9RSR1). In words: native gel or EMSA + other: negative stain electron microscopy. A general note: A gel shift assay detects complexes by their altered migration in electrophoresis.
For series [2], the target named is D. radiodurans PNPase lacking the KH domain (D. radiodurans) (UniProt Q9RSR1). The description is as above.
Series [3] concerns the molecule itself. In words: glycerol gradient sedimentation.

On to “D. radiodurans PNPase lacking the S1 domain (from UniProt Q9RSR1 1-779) (enzyme)”, for which, in series [1], the stoichiometry N was 3.

Take “D. radiodurans PNPase lacking the KH domain (from UniProt Q9RSR1 1-779) (enzyme)”: the stoichiometry N in series [2] came out at 3.

B1: Salmonella Typhimurium PNPase fused to 3 copies of FLAG (FLAG3-pnp) (enzyme, S. Typhimurium, UniProt Q8ZLT3 1-711, looked up)
chain: MLNPIVRKFQYGQHTVTLETGMMARQATAAVMVSMDDTAVFVTVVGQKKAKPGQDFFPLTVNYQERTYAAGRIPGSFFRREGRPSEGETLIARLIDRPVRPLFPEGFVNEVQVIATVVSVNPQVNPDIVAMIGASAALSLSGIPFNGPIGAARVGYINDQYVLNPTQDELKESKLDLVVAGTEAAVLMVESEAELLSEDTMLGAVVFGHEQQQVVIQAINDLVKEAGKPRWDWQPEAVNDALNARVAALAESRLSDAYRITDKQERYAQVDVIKSETIEQLIAEDETLDANELGEILHAIEKNVVRSRVLAGEPRIDGREKDMIRGLDVRTGVLPRTHGSALFTRGETQALVTATLGTARDAQVLDELMGERTDSFLFHYNFPPYSVGETGMVGSPKRREIGHGRLAKRGVLAVMPDMDKFPYTVRVVSEITESNGSSSMASVCGASLALMDAGVPIKAAVAGIAMGLVKEGDNYVVLSDILGDEDHLGDMDFKVAGSRDGISALQMDIKIEGITKEIMQVALNQAKGARLHILGVMEQAINAPRGDISEFAPRIHTIKISTDKIKDVIGKGGSVIRALTEETGTTIEIEDDGTVKIAATDGEKAKYAIRRIEEITAEIEVGRIYNGKVTRIVDFGAFVAIGGGKEGLVHISQIADKRVEKVTDYLQMGQEVPVKVLEVDRQGRVRLSIKEATEQSQPAAAPEAPASEQAE
Take B1: the “stoichiometry N” value in series [3] was 3.

In general, stoichiometry N refers to a count of units in the complex or per binding partner.
